Source: the supplement of paper PMC9112550, “Optimization of the antimicrobial peptide Bac7 by deep mutational scanning” (BMC Biology, 2022)

Each sequence was assayed on Escherichia coli TOP10 (assay: shrunken log2 fold change of peptide-encoding DNA abundance (4.5 h post-induction vs induction); higher = less antimicrobial activity (less host growth inhibition)). Conditions: time post-induction: 4.5 h; library: site-saturation at positions 5, 18, 19, 20.
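Also: peptides expressed intracellularly from a pBAD plasmid library in pooled LB shake-flask culture, induced with 0.3% L-arabinose, DNA abundance read by NGS, three biological replicates, DESeq2 with apeglm shrinkage.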

| Sequence | shrunken log2 fold change |
| --- | --- |
| RRIRFRPPRLPRPRPRPAQDPRP | 0.381 |
| RRIRTRPPRLPRPRPRPMCSPRP | -0.0861 |
| RRIRIRPPRLPRPRPRPGMTPRP | -0.164 |
| RRIRFRPPRLPRPRPRPNWDPRP | -0.269 |
| RRIRIRPPRLPRPRPRPGHRPRP | 0.0543 |
| RRIRMRPPRLPRPRPRPQHQPRP | 0.214 |
| RRIRYRPPRLPRPRPRPTGEPRP | -0.0166 |
| RRIRGRPPRLPRPRPRPGVDPRP | 0.951 |
| RRIRERPPRLPRPRPRPYSKPRP | -0.464 |
| RRIRSRPPRLPRPRPRPYRFPRP | -0.134 |
| RRIRLRPPRLPRPRPRPPHFPRP | 0.437 |
| RRIRGRPPRLPRPRPRPSAYPRP | 1.07 |
| RRIRTRPPRLPRPRPRPWFNPRP | -0.471 |
| RRIRPRPPRLPRPRPRPIQRPRP | 0.364 |
| RRIRGRPPRLPRPRPRPKIHPRP | 0.373 |
| RRIRQRPPRLPRPRPRPLMKPRP | 0.158 |
| RRIRWRPPRLPRPRPRPKVHPRP | -0.136 |
| RRIRNRPPRLPRPRPRPGTMPRP | 0.0148 |
| RRIRPRPPRLPRPRPRPLPTPRP | 0.42 |
| RRIRLRPPRLPRPRPRPIGMPRP | 0.0212 |
| RRIRWRPPRLPRPRPRPCKMPRP | -0.184 |
| RRIRLRPPRLPRPRPRPGSAPRP | 0.273 |
| RRIRIRPPRLPRPRPRPKTSPRP | -0.465 |
| RRIRYRPPRLPRPRPRPPGLPRP | 0.148 |
| RRIRYRPPRLPRPRPRPLPIPRP | -0.722 |

| Sequence | shrunken log2 fold change |
| --- | --- |
| RRIRARPPRLPRPRPRPHYHPRP | -0.332 |
| RRIRHRPPRLPRPRPRPYDAPRP | -0.271 |
| RRIRARPPRLPRPRPRPWMEPRP | -0.0866 |
| RRIRERPPRLPRPRPRPGSWPRP | 2.45 |
| RRIRKRPPRLPRPRPRPFRSPRP | 0.0452 |
| RRIRTRPPRLPRPRPRPHFVPRP | -0.239 |
| RRIRPRPPRLPRPRPRPNDHPRP | -0.386 |
| RRIRTRPPRLPRPRPRPTMAPRP | 0.201 |
| RRIRIRPPRLPRPRPRPVKNPRP | -0.765 |
| RRIRDRPPRLPRPRPRPYQIPRP | -0.238 |
| RRIRERPPRLPRPRPRPWNQPRP | -0.124 |
| RRIRWRPPRLPRPRPRPHSNPRP | -0.09 |
| RRIRCRPPRLPRPRPRPMQDPRP | -0.0947 |
| RRIRPRPPRLPRPRPRPLHCPRP | -0.382 |
| RRIRERPPRLPRPRPRPSKAPRP | -0.129 |
| RRIRIRPPRLPRPRPRPGMFPRP | -0.284 |
| RRIRMRPPRLPRPRPRPGIIPRP | -0.0597 |
| RRIRVRPPRLPRPRPRPETFPRP | -0.0527 |
| RRIRKRPPRLPRPRPRPPTAPRP | 0.742 |
| RRIRGRPPRLPRPRPRPPWHPRP | 0.396 |
| RRIRKRPPRLPRPRPRPTISPRP | -0.279 |
| RRIRFRPPRLPRPRPRPGLHPRP | 0.159 |
| RRIRSRPPRLPRPRPRPSTYPRP | -0.405 |
| RRIRWRPPRLPRPRPRPLFLPRP | -0.318 |
| RRIRIRPPRLPRPRPRPYPYPRP | 0.0143 |

| Sequence | shrunken log2 fold change |
| --- | --- |
| RRIRNRPPRLPRPRPRPQEKPRP | -0.198 |
| RRIRVRPPRLPRPRPRPMKRPRP | 0.0336 |
| RRIRSRPPRLPRPRPRPNFEPRP | -0.068 |
| RRIRYRPPRLPRPRPRPVRYPRP | -0.157 |
| RRIRARPPRLPRPRPRPTSLPRP | 0.225 |
| RRIRERPPRLPRPRPRPPINPRP | -0.224 |
| RRIRARPPRLPRPRPRPAEYPRP | -0.0257 |
| RRIRFRPPRLPRPRPRPALSPRP | 0.319 |
| RRIRQRPPRLPRPRPRPVWFPRP | 0.111 |
| RRIRYRPPRLPRPRPRPMFPPRP | -0.463 |
| RRIRFRPPRLPRPRPRPLNQPRP | -0.282 |
| RRIRPRPPRLPRPRPRPAVGPRP | 0.414 |
| RRIRWRPPRLPRPRPRPRGPPRP | 0.931 |
| RRIRFRPPRLPRPRPRPKQIPRP | -0.218 |
| RRIRARPPRLPRPRPRPSGNPRP | 0.0499 |
| RRIRFRPPRLPRPRPRPVGHPRP | -0.0219 |
| RRIRNRPPRLPRPRPRPFQYPRP | -0.0242 |
| RRIRVRPPRLPRPRPRPFELPRP | 0.0193 |
| RRIRMRPPRLPRPRPRPNQVPRP | -0.217 |
| RRIRVRPPRLPRPRPRPGEYPRP | 0.00369 |
| RRIRPRPPRLPRPRPRPLKYPRP | -0.424 |
| RRIRDRPPRLPRPRPRPTFSPRP | 0.743 |
| RRIRERPPRLPRPRPRPYDMPRP | -0.222 |
| RRIRGRPPRLPRPRPRPWWMPRP | 0.322 |
| RRIRPRPPRLPRPRPRPCCHPRP | 0.0505 |

| Sequence | shrunken log2 fold change |
| --- | --- |
| RRIRTRPPRLPRPRPRPEAQPRP | 0.00719 |
| RRIRNRPPRLPRPRPRPFRLPRP | -0.505 |
| RRIRTRPPRLPRPRPRPVTYPRP | 0.0141 |
| RRIRDRPPRLPRPRPRPRTEPRP | 0.0904 |
| RRIRIRPPRLPRPRPRPECNPRP | -0.324 |
| RRIRSRPPRLPRPRPRPFFHPRP | -0.498 |
| RRIRRRPPRLPRPRPRPSQIPRP | 0.092 |
| RRIRNRPPRLPRPRPRPWEEPRP | -0.00133 |
| RRIRIRPPRLPRPRPRPAWPPRP | 0.339 |
| RRIRKRPPRLPRPRPRPEKCPRP | 0.0317 |
| RRIRIRPPRLPRPRPRPHSGPRP | -0.00591 |
| RRIRCRPPRLPRPRPRPFEPPRP | -0.0564 |
| RRIRMRPPRLPRPRPRPKHTPRP | 1.93 |
| RRIRQRPPRLPRPRPRPGCDPRP | -0.229 |
| RRIRNRPPRLPRPRPRPQLMPRP | -0.0332 |
| RRIRMRPPRLPRPRPRPMHYPRP | -0.221 |
| RRIRDRPPRLPRPRPRPCCQPRP | -0.0183 |
| RRIRHRPPRLPRPRPRPAKIPRP | -0.0242 |
| RRIRGRPPRLPRPRPRPYPPPRP | -0.0824 |
| RRIRQRPPRLPRPRPRPGIEPRP | -0.113 |
| RRIRCRPPRLPRPRPRPDKVPRP | -0.224 |
| RRIRIRPPRLPRPRPRPTMAPRP | -0.445 |
| RRIRVRPPRLPRPRPRPEERPRP | -0.194 |
| RRIRCRPPRLPRPRPRPSKGPRP | -0.212 |
| RRIRYRPPRLPRPRPRPPFWPRP | 0.395 |

| Sequence | shrunken log2 fold change |
| --- | --- |
| RRIRERPPRLPRPRPRPARGPRP | 0.644 |
| RRIRWRPPRLPRPRPRPTYPPRP | -0.553 |
| RRIRERPPRLPRPRPRPNCFPRP | -0.195 |
| RRIRCRPPRLPRPRPRPIADPRP | -0.107 |
| RRIRFRPPRLPRPRPRPCKYPRP | -0.373 |
| RRIRTRPPRLPRPRPRPFFTPRP | -0.118 |
| RRIRYRPPRLPRPRPRPGFNPRP | -0.46 |
| RRIRLRPPRLPRPRPRPIKIPRP | 0.0507 |
| RRIRDRPPRLPRPRPRPVFLPRP | -0.208 |
| RRIRIRPPRLPRPRPRPVQVPRP | -0.0757 |
| RRIRNRPPRLPRPRPRPTIWPRP | -0.23 |
| RRIRRRPPRLPRPRPRPKYRPRP | -0.000605 |
| RRIRGRPPRLPRPRPRPRDRPRP | 0.789 |
| RRIRYRPPRLPRPRPRPLIQPRP | -0.559 |
| RRIRSRPPRLPRPRPRPMPMPRP | 0.0988 |
| RRIRHRPPRLPRPRPRPVRWPRP | 0.98 |
| RRIRTRPPRLPRPRPRPPEYPRP | 0.0238 |
| RRIRDRPPRLPRPRPRPFQVPRP | -0.609 |
| RRIRLRPPRLPRPRPRPGELPRP | 0.0243 |
| RRIRQRPPRLPRPRPRPYVKPRP | -0.365 |
| RRIRNRPPRLPRPRPRPRIPPRP | 0.157 |
| RRIRTRPPRLPRPRPRPEMWPRP | 0.0446 |
| RRIRERPPRLPRPRPRPKIGPRP | -0.0947 |
| RRIRVRPPRLPRPRPRPMRHPRP | -0.00914 |
| RRIRERPPRLPRPRPRPSNVPRP | -0.441 |

| Sequence | shrunken log2 fold change |
| --- | --- |
| RRIRIRPPRLPRPRPRPWIYPRP | -0.126 |
| RRIRTRPPRLPRPRPRPLDAPRP | -0.00457 |
| RRIRTRPPRLPRPRPRPIQWPRP | 0.015 |
| RRIRSRPPRLPRPRPRPFMRPRP | 0.0496 |
| RRIRSRPPRLPRPRPRPPQAPRP | 0.768 |
| RRIRVRPPRLPRPRPRPCYGPRP | -0.259 |
| RRIRYRPPRLPRPRPRPAPIPRP | 0.226 |
| RRIRCRPPRLPRPRPRPSGTPRP | -0.0132 |
| RRIRIRPPRLPRPRPRPLCQPRP | 0.127 |
| RRIRMRPPRLPRPRPRPVGWPRP | 1.37 |
| RRIRFRPPRLPRPRPRPCIPPRP | 0.0633 |
| RRIRKRPPRLPRPRPRPAKMPRP | 0.376 |
| RRIRDRPPRLPRPRPRPHGFPRP | -0.00776 |
| RRIRFRPPRLPRPRPRPELYPRP | 0.0341 |
| RRIRCRPPRLPRPRPRPKPPPRP | 0.931 |
| RRIRIRPPRLPRPRPRPNWVPRP | -0.231 |
| RRIRWRPPRLPRPRPRPIMFPRP | -0.189 |
| RRIRTRPPRLPRPRPRPPPKPRP | 0.82 |
| RRIRGRPPRLPRPRPRPRQAPRP | 0.93 |
| RRIRPRPPRLPRPRPRPPMCPRP | 0.0827 |
| RRIRPRPPRLPRPRPRPNMRPRP | 0.272 |
| RRIRYRPPRLPRPRPRPFCRPRP | -0.228 |
| RRIRVRPPRLPRPRPRPMEYPRP | -0.0697 |
| RRIRVRPPRLPRPRPRPSMYPRP | 0.531 |
| RRIRPRPPRLPRPRPRPYMNPRP | -1.01 |
